Laboratory results published in the supplement of paper PMC10126150.
± gives the standard deviation of the averaged measurements.

test system: ATP; test: switch fluorescence ratio, 500 uM ATP over buffer (Cy3 cluster intensity, sum of 5 cycles each) (fold (ratio)); higher = stronger signal-on switching upon ATP binding; sequences stand for … in TCGTCGGCAGCGTCAGATGTGTATAAGAGACAGTTTTTTTTTTTTTTTTTTTTTTTTT…TC; details: aptamer strand: ATP DNA aptamer (quencher-CACCTGGGGGAGTATTGCGGAGGAAGG + anchor), 100 nM annealed; ATP concentration: 500 uM
Procedure, shortened: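 Switching-strand clusters labelled with Cy3 on a modified Illumina MiSeq flow-cell were annealed to 100 nM quencher-labelled ATP aptamer, imaged in selection buffer, and re-imaged after 15 min with 500 uM ATP at 22 °C. This was done over five cycles with NaOH stripping and re-annealing in between. The fluorescence ratio is summed target-cycle over summed buffer-cycle Cy3 intensity per cluster, averaged per switch-domain sequence, excluding clusters outside 100-1000 RFU.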
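Note: ATP exposure 15 min at 22 °C before imaging.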

| Sequence | switch fluorescence ratio |
| --- | --- |
| ATTAGAATGG | 1 ± 0.01 |
| GGTCTACATT | 1.01 ± 0.032 |
| CGTACGGGCG | 0.956 ± 0.028 |
| AGCTTGAAG | 0.999 ± 0.019 |
| TTTCTTGCTG | 1.07 ± 0.047 |
| CGGATTGGGA | 1.002 ± 0.0026 |
| GTTCGAACGG | 0.9963 ± 0.006 |
| TGTGTGTTAG | 0.985 ± 0.016 |
| GACTAGGCGG | 1.12 ± 0.2 |
| TCAATTTTGC | 1.02 ± 0.034 |
| TGGAATGTTG | 1.02 ± 0.0078 |
| AAGGCGGTCA | 1.01 ± 0.04 |
| TAAAAGTATT | 1.03 ± 0.068 |
| TACTGGTCCT | 1.03 ± 0.038 |
| TGATCAAGGA | 0.997 ± 0.041 |
| ACTCATGTTG | 0.98166 ± 0.00011 |
| AGTGAGGGGT | 0.97 ± 0.03 |
| TAAGGGCAGA | 1.02 ± 0.045 |
| TTATGTGACT | 1.01 ± 0.021 |
| TTTTCGAATT | 0.991 ± 0.015 |
| TCTTTCTGGG | 1.03 ± 0.021 |
| GACCTTGTGC | 1.03 ± 0.042 |
| TTTTATAGTG | 0.984 ± 0.033 |
| AGGAGTTCTT | 0.989 ± 0.032 |
| ATTATGGAAG | 0.994 ± 0.018 |
| TGAGAGTTAT | 1 ± 0.051 |

| Sequence | switch fluorescence ratio |
| --- | --- |
| TGTACGGAGG | 1.04 ± 0.057 |
| GGGGTTGTGG | 0.988 ± 0.032 |
| GTTTTTTAAC | 1.01 ± 0.04 |
| TTATTTTGTA | 1.03 ± 0.013 |
| ATGTGATGGC | 0.981 ± 0.019 |
| AGCTTATCTA | 1 ± 0.011 |
| TTAATTTGAA | 0.997 ± 0.013 |
| AATTAGGTGC | 1.14 ± 0.077 |
| ATGTAATCAT | 1.01 ± 0.024 |
| TGGGGATGGG | 0.996 ± 0.029 |
| TCATGTGCAT | 1.129 ± 0.0048 |
| TGATTTTGCC | 1.01 ± 0.018 |
| CCAGGGGCGA | 1.75 ± 0.9 |
| ATGGGAAACG | 0.995 ± 0.014 |
| ATAGTGTTGG | 0.986 ± 0.029 |
| GTAGTGCGGG | 0.9536 ± 0.0014 |
| GGATGGTAGT | 1.01 ± 0.071 |
| AAAGTTATAT | 1.022 ± 0.0028 |
| TAATTTAGTG | 0.9858 ± 0.0056 |
| TAAAAGTCGG | 1.01 ± 0.019 |
| GATTGAATTT | 0.989 ± 0.032 |
| AGAAGCTGGG | 1 ± 0.03 |
| TTTCGCGGGC | 1.94 ± 0.53 |
| TTTACGAAAT | 1.08 ± 0.12 |
| GTAGTAAAAC | 1.69 ± 0.087 |
| TGGGGATACT | 1.04 ± 0.036 |

| Sequence | switch fluorescence ratio |
| --- | --- |
| TTTTGAGACT | 0.96 ± 0.0084 |
| AGAGGTAGGA | 0.979 ± 0.016 |
| GATTTTCAGA | 0.998 ± 0.027 |
| TAGACGTCGT | 0.965 ± 0.024 |
| GGTGTAGCGG | 0.982 ± 0.065 |
| GGGTCTGGTA | 1.02 ± 0.038 |
| GAAGGGGTGA | 1.03 ± 0.053 |
| GTGTGAGGGT | 1.04 ± 0.053 |
| GGCGACGGGG | 1 ± 0.02 |
| GCTGTGCACG | 1.02 ± 0.02 |
| ATTAGGGTAT | 1.0078 ± 0.00026 |
| GTTGTTGGGT | 0.983 ± 0.034 |
| ACTTGCACTT | 1.22 ± 0.038 |
| CAATATTTG | 0.994 ± 0.015 |
| GATAATTGAG | 1.04 ± 0.044 |
| TCACTGTCGC | 1.13 ± 0.07 |
| GCGGGCGGCC | 0.9812 ± 0.0082 |
| TGTCAGTCGA | 1.002 ± 0.0036 |
| TACATGAAGA | 1.02 ± 0.013 |
| TAATGGAGGG | 0.965 ± 0.047 |
| CATCTGGTGC | 1.63 ± 0.19 |
| AGGAATCAAG | 0.9968 ± 0.0071 |
| GACCGTTTGA | 1.03 ± 0.03 |
| CAGGTGGTTG | 1.01 ± 0.035 |
| CTTGGGTTCT | 1 ± 0.012 |
| ACGGTTTTTC | 1.0014 ± 0.0005 |

| Sequence | switch fluorescence ratio |
| --- | --- |
| GCATGACTGT | 1.01 ± 0.024 |
| CACAGCGTCG | 1 ± 0.017 |
| AAGTGTCTTG | 0.999 ± 0.05 |
| TAATCACGAA | 1.036 ± 0.0039 |
| AAATATATAT | 0.994 ± 0.044 |
| ATACGGACGG | 1.4 ± 0.073 |
| GGGGCGTTCG | 1 ± 0.071 |
| TTGTCTGTCC | 0.98 ± 0.018 |
| CGTGATGGTA | 0.969 ± 0.0098 |
| CGAAAGTTTA | 1.008 ± 0.0021 |
| CTGGAAAACC | 1.02 ± 0.0058 |
| ACCGGGGTGC | 1.612 ± 0.0063 |
| TATCTAATGC | 1 ± 0.085 |
| GCTGATAACG | 1.01 ± 0.035 |
| GAAGGCACTA | 1.03 ± 0.045 |
| TGTTATAAAC | 1.02 ± 0.017 |
| TTTGAGTGCG | 0.973 ± 0.025 |
| GAGGGGGCAA | 1.01 ± 0.016 |
| TGAATAAAGC | 1.05 ± 0.02 |
| TGTTTTGTAG | 1 ± 0.015 |
| ATAGAACGGG | 1.01 ± 0.025 |
| AGTTTTGGTG | 0.985 ± 0.01 |
| CGTCTGGGGA | 0.996 ± 0.048 |
| GGGGTTGCGA | 0.996 ± 0.018 |
| ATGATTTCGT | 0.9793 ± 0.0085 |
| TCAGGGCAGC | 1.01 ± 0.019 |

| Sequence | switch fluorescence ratio |
| --- | --- |
| AGATTGGGGG | 0.969 ± 0.034 |
| TTAAGCGAGC | 0.9657 ± 0.0024 |
| TAGGGATTGG | 1.01 ± 0.039 |
| AGAGGGCTAT | 0.989 ± 0.038 |
| CGGAACAGCA | 1.08 ± 0.051 |
| TAGTATAG | 0.9745 ± 0.0045 |
| ATAGGAGTCG | 1 ± 0.02 |
| GGGGGCCCTT | 1.02 ± 0.043 |
| AATTAATGGA | 0.997 ± 0.036 |
| ATGTTAGTGG | 1.01 ± 0.066 |
| GCTTTTTGGG | 0.963 ± 0.039 |
| TCAAACTGTT | 1.08 ± 0.025 |
| TAAAAATCCC | 1.16 ± 0.083 |
| TGGACAACTT | 0.995 ± 0.025 |
| CGGGGGGTGG | 1 ± 0.039 |
| CCGGTCTTGA | 1.01 ± 0.039 |
| TAAGGAATTG | 1.01 ± 0.045 |
| TGGGGGGCAT | 1.07 ± 0.19 |
| TTGTTAATCG | 0.984 ± 0.011 |
| TGGACGTTGC | 1.03 ± 0.012 |
| TTGGAAGGAC | 1.03 ± 0.013 |
| GCAGACAGCT | 1.037 ± 0.0085 |
| ATTATATGTG | 1.02 ± 0.027 |
| GGGGGAAGGG | 0.984 ± 0.027 |
| AATTGGTACG | 0.992 ± 0.021 |
| TACGGTTGCA | 1.01 ± 0.017 |

| Sequence | switch fluorescence ratio |
| --- | --- |
| GTGGAGGGTA | 1.01 ± 0.029 |
| AGAGGAAGGG | 0.993 ± 0.01 |
| TATTTTGCGT | 1.002 ± 0.0024 |
| GCCGAAGGGG | 1.004 ± 0.0035 |
| ATTATGGCGT | 0.999 ± 0.013 |
| CAAAGCATCA | 1.05 ± 0.029 |
| GGGTGTAGCG | 0.965 ± 0.026 |
| CGGGATAGGG | 0.977 ± 0.026 |
| GGTACGGCAA | 1.09 ± 0.019 |
| ATGTGGATGG | 0.976 ± 0.023 |
| TTAAACGTGT | 1.04 ± 0.03 |
| CTTATTGTTT | 0.995 ± 0.069 |
| GGGGATCGGG | 0.965 ± 0.022 |
| CTCAAAAGTA | 1.09 ± 0.11 |
| ACTCCGGGGA | 2.4 ± 0.42 |
| TTACGGATGG | 1.03 ± 0.065 |
| TTCAAGTTAT | 1.04 ± 0.045 |
| ATGATTAATT | 1.03 ± 0.017 |
| AAAATTTTTA | 1 ± 0.021 |
| TTAGAAGCTT | 1.03 ± 0.03 |
| CAACAGGGGG | 1.06 ± 0.056 |
| CAGGGAATTG | 0.989 ± 0.075 |
| CGATTAACTC | 1.03 ± 0.012 |
